The target of this assay is VEGF:sFlk-1 complex (human; mouse) (UniProt P15692). The experiment in a line: capture ELISA: biotinylated sFlk-1 complexed with VEGF titrated onto wells coated with irrelevant IgM, concentration giving 50% maximal binding; extrapolated value.

Broadly, the EC50 is the concentration needed to bring the measured effect to its halfway point.

Chain of VEGF:sFlk-1 complex (human; mouse) (P15692 other isoform, or with tags, fused parts or gaps limits assumed, chain 1 of 2): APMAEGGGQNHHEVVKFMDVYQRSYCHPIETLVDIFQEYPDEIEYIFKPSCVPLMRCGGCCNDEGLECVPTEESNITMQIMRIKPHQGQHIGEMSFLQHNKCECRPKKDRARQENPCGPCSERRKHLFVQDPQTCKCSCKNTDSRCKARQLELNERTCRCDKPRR
Chain of VEGF:sFlk-1 complex (human; mouse) (P35918 20-762 limits assumed, chain 2 of 2, further chain): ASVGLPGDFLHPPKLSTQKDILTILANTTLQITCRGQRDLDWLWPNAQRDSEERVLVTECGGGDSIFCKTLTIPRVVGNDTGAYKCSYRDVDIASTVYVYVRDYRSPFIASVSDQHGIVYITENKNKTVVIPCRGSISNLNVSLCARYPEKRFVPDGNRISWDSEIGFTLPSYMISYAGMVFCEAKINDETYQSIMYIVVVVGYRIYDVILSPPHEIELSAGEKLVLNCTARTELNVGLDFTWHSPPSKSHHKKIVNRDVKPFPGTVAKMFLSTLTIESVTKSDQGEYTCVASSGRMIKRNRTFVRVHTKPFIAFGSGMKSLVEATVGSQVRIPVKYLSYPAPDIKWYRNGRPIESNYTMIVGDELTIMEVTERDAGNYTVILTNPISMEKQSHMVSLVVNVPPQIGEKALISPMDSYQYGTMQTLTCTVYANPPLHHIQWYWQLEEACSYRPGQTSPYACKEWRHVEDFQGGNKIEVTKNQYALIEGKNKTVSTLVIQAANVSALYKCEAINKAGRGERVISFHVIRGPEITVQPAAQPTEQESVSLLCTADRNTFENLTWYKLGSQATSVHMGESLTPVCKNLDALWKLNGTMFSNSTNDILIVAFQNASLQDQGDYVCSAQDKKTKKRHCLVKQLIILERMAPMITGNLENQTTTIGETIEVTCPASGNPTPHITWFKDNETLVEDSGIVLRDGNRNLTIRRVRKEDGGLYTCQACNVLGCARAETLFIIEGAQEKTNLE

Turning to “irrelevant IgM (negative control of Table 2) (antibody)”, the EC50 is 600 nM.
